The target in test [1] is recombinant fibronectin domain ED-B (His)6 (human) (UniProt P02751). Briefly: SPR (BIAcore), ED-B immobilised on chip.
Test [2] shares this target. In words: SPR (BIAcore), ED-B immobilised on chip. The source holds these as a separate data set. A general note: SPR reads the build-up and loss of mass on a sensor chip optically.
Test [3] shares this target. Briefly: SPR (BIAcore), ED-B immobilised on chip. This is another data set of the same source.
Test [4] deals with T1, recombinant fibronectin domain 6 (UniProt P02751 1086-1172, limits assumed).
T1 construct: domain: fibronectin domain 6; also called 6FN; 6-FN
Briefly: specificity ELISA on immobilised recombinant fibronectin domain 6. A general note: An ELISA detects its analyte on a solid surface through an enzyme-linked reagent.

Test [5] addresses T2, recombinant fibronectin domain ED-B (His)6 (human, UniProt P02751 1266-1356).
T2 construct: domain: ED-B; Produced by standard procedures; immobilised on ELISA plates or on the BIAcore chip; also called recombinant ED-B; human ED-B
Briefly: SPR (BIAcore), ED-B immobilised on chip (about 100 RU), Fab in flow. The procedure: (§1) F1-Chips (Biacore, Sweden) were coated with about 200 RU of ED-B (30 μg/ml, 10 mmol of acetate buffer, pH 4.0) and reference flow cells with a corresponding amount of human serum albumin (20 μg/ml, 10 mmol of acetate buffer, pH 4.5) with use of standard EDC-NHS-amine-coupling chemistry. The antigen density was reduced to about 100 RU for the Fab characterization of the second maturation. The regeneration was carried out with 10 mmol of HCl. All kinetic measurements were carried out in PBS buffer (136 mmol of NaCl, 2.7 mmol of KCl, 10 mmol of Na₂HPO₄, 1.76 mmol of KH₂PO₄, pH 7.4) with a flow rate of 20 μl/minute with use of a Fab concentration range of 1.5-500 nmol. The injection period was 1 minute in each case. All sensograms were evaluated with use of BIA evaluation software 3.1.

Test [6] concerns the target T3, recombinant fibronectin domain 7-8-9 (without ED-B) (UniProt P02751-1 1173-1446, limits assumed).
T3 construct: domain: fibronectin domains 7-8-9 (without ED-B)
In words: specificity ELISA on immobilised recombinant domain 7-8-9.

Test [7] deals with T2, recombinant fibronectin domain ED-B …. Briefly: SPR (BIAcore), ED-B immobilised on chip, Fab in flow. The method, then: as §1
Test [8] has the same target. In words: SPR (BIAcore); ratio to parent clone MOR02715. The method, then: as §1

Substitutions are numbered along the chain they refer to. Like-named read-outs stand apart in the source and are kept apart here.

In general, Kd refers to the constant that tells how readily two partners part at equilibrium. As usually defined, the koff is the rate constant with which the complex falls apart. What is called kon is a measure of how fast the partners come together. Turning to “AP39, covalent dimer of the anti-ED-B scFv antibody L19”, the Kd in test [1] amounted to 2.4 nM. Further, the off-rate constant (koff) in test [1] amounted to 0.00149 s⁻¹; in test [2], 0.0015 s⁻¹. Besides, the on-rate constant (kon) worked out at 660000 M⁻¹ s⁻¹ in test [1] and 675000 M⁻¹ s⁻¹ in test [3].

B1: MOR03245 (Fab, V domains shown)
VH: QVQLQESGPGLVKPGETLSLTCTVSGGSISSYYWSWIRQAPGKGLEWIGVIHKWGFTNYNPSLKSRVTISVDTSKNQFSLKLSSVTAADTAVYYCARFFDVWGQGTLVTVSS
VL: DIVLTQPPSVSGAPGQRVTISCSGSSSNIGSNTVRWYQQLPGTAPKLLIYSNNKRPSGVPDRFSGSKSGTSASLAITGLQSEDEADYYCWTGMSYHFVFGGGTKLTVLG
notes: Fab, H-CDR2 derivative of MOR03069
On to B1, for which the binding result in test [4] is on record as “no binding”. Besides, in test [5], the equilibrium dissociation constant (Kd) was determined as 0.7 nM, the koff amounted to 0.0016 s⁻¹ and the kon is 3.5e+06 M⁻¹ s⁻¹. Besides, the binding result in test [6] is “no binding”.

B2: MOR03062 (Fab, V domains shown)
VH: QVQLVESGGGLVQPGGSLRLSCAASGFTFSSYGMHWVRQAPGKGLEWVSVISSSGSYIYYADSVKGRFTISRDNSKNTLYLQMNSLRAEDTAVYYCARNKVGFDVWGQGTLVTVSS
VL: DIALTQPASVSGSPGQSITISCTGTSSDGGGYNTVSWYQQHPGKAPKLMIYYVHKRPSGVSNRFSGSKSGNTASLTISGLQAEDEADYYCQSWDLSVHQVVFGGGTKLTVLG
notes: Fab, L-CDR3 derivative of MOR02715
B2: in test [7], the Kd was 3.4 nM, the dissociation rate constant (koff) was determined as 0.011 s⁻¹ and the kon was 3.5e+06 M⁻¹ s⁻¹. Moreover, in test [8], the “x-Fold Improvement Relative to the Parent Clone, KD” value stood at 15.8 fold; the “x-Fold Improvement Relative to the Parent Clone, Koff” value turned out to be 4.2 fold; the “x-Fold Improvement Relative to the Parent Clone, Kon” value amounted to 4 fold.

B3: MOR03253 (Fab, V domains shown)
VH: B2 VH with S53N, S54M, S56F, Y57E
VL: B2 VL
notes: Fab, H-CDR2 derivative
Consider B3, for which the binding result in test [4] is listed as “no binding”. Moreover, in test [5], the dissociation constant (Kd) came to 0.13 nM, the off-rate constant (koff) was determined as 0.0002 s⁻¹ and the kon is 1.6e+06 M⁻¹ s⁻¹. Further, in test [6], the binding result is reported as “no binding”.

B4: MOR03064 (Fab, V domains shown)
VH: B2 VH
VL: B2 VL with S96L, V97A, H98P, Q99S
notes: as for B2
Take B4: in test [7], the Kd stood at 10 nM, the koff came out at 0.014 s⁻¹ and the on-rate constant (kon) stood at 1.5e+06 M⁻¹ s⁻¹. In test [8], the “x-Fold Improvement Relative to the Parent Clone, KD” value stood at 5.3 fold; the “x-Fold Improvement Relative to the Parent Clone, Koff” value worked out at 3.5 fold; the “x-Fold Improvement Relative to the Parent Clone, Kon” value came to 1.7 fold.

B5: MOR03251 (Fab, V domains shown)
VH: B2 VH with S53N, S54M, G55S, S56Y, Y57T
VL: B2 VL
notes: Fab, H-CDR2 derivative of MOR03062
On to B5, for which the binding result in test [4] was “no binding”. Also, in test [5], the dissociation constant Kd was 0.07 nM, the koff is 0.0002 s⁻¹ and the kon came to 3.3e+06 M⁻¹ s⁻¹. In addition, the binding result in test [6] was “no binding”.

(Values after patent publication US20060115428A1 (MorphoSys, published 2006).)
